From patent US20250186614A1, “COMPACT DRUG RESPONSIVE DOMAINS FOR REGULATION OF FUNCTION/ABUNDANCE AND DELIVERY OF POLYPEPTIDE PAYLOADS” (OBSIDIAN THERAPEUTICS, INC., priority 2022, published 2025)
Where a chain is given by its changes, count along the chain named. Names and notes keep the numbering of the source.

Test system: Jurkat cells
Assay: Tacrolimus dose response of FKBP13-AcGFP-mCherry constructs stably transduced into Jurkat cells, GFP MFI by flow cytometry
Assay type: cell-based
Design: Basal: unit not given here
Conditions: for DRD function after abrogating the disulfide bonds: FIG. 4; for basal AcGFP expression: absence of tacrolimus
Experimental: The regulation of AcGFP, from FKBP13-AcGFP-mCherry constructs, in Jurkat cells, was also studied. Jurkat Clone E6-1 cells were cultured in standard media (RPMI+GlutaMAX Supplement (Life Technologies, Carlsbad, CA Cat #61870127), Fetal Bovine Serum (FBS) (Life Technologies Cat #10-082-147)). Jurkat cells were transduced with lentivirus produced with each of FKBP-039, FKBP-040, FKBP-041, FKBP-042, FKBP-043, FKBP-044, or FKBP-045 constructs. Jurkat cells were transduced until they were 10-25% positive, as determined on day 5 post-transduction, by using mCherry as a transduction marker. […] The Geometric Mean Fluorescent Intensity (MFI) of GFP expression in mCherry+ cells was plotted and dose response curve fits were performed using Prism Software (San Diego, CA).
FKBP-091 was used as a comparative construct.
FIGS. 22-38 show the results of characterization of FKBP-160-292. […] FKBP-091 and FKBP-117 was used as a comparative control for FKBP-160-FKBP-255. FKBP-195 was used as a comparative control for FKBP-256-FKBP-275. FKBP-117, FPBP-195 and FKBP-251 were used as a comparative control for FKBP-276-FKBP-292.
FKBP mutants were cloned in a manner to make a fusion protein with AcGFP in order to assess FKBP mutant regulation by using AcGFP expression as a readout. […] Further iterative FKBP mutants (FKBP-256-FKBP-292) were constructed from these initial combinatorial mutants to see if we could further improve FKBP DRD properties.

[1] = tacrolimus dose response, Jurkat cells stably transduced (FIG. 4), Table 4
[2] = tacrolimus, Jurkat cells, Table 13
[3] = tacrolimus dose response, Jurkat cells stably transduced (FIG. 10), Table 5

B1: FKBP-062: FKBP13 DRD Q72R, Q84E, A117H, M54A, [−]disulfide; SEQ ID NO: 18 (protein)
chain: HSPIKSRKGDVLHAHYTGKLEDGTEFDSSLPRNQPFVFSLGTGEVIKGWDQGLLGMSEGEKRKLVIPSELGYGERGHPPKIPGGATLVFEVELLKIER
modifications: disulfide removed; Description of sequence: FKBP13-AcGFP-mCherry Fusion; Construct Name: FKBP-062; FKBP13 DRD in Construct : FKBP13 (mutated to match FKBP12 active site - Q72R Q84E A117H) (DRD - M54A [-]disulfide)
Tacrolimus dose response
  DRD function after abrogating the disulfide bonds: did not create a significant difference in DRD function
[1]
  Fold Change: 10.4

B2: FKBP-061: FKBP13 DRD Q72R, Q84E, A117H, L133A; SEQ ID NO: 17 (protein)
chain: B1 chain with S2C, A14M, S57C, L93A
modifications: Description of sequence: FKBP13-AcGFP-mCherry Fusion; Construct Name: FKBP-061; FKBP13 DRD in Construct : FKBP13 (mutated to match FKBP12 active site - Q72R Q84E A117H) (DRD - L133A)
[1]
  Fold Change: 16.6

B3: FKBP-057: FKBP13 DRD Q72R, Q84E, A117H, I106A; SEQ ID NO: 13 (protein)
chain: B1 chain with S2C, A14M, S57C, I66A
modifications: Description of sequence: FKBP13-AcGFP-mCherry Fusion; Construct Name: FKBP-057; FKBP13 DRD in Construct : FKBP13 (mutated to match FKBP12 active site - Q72R Q84E A117H) (DRD - I106A)
[1]
  Fold Change: 2.7

B4: FKBP-064: FKBP13 DRD Q72R, Q84E, A117H, R102L; SEQ ID NO: 20 (protein)
chain: B1 chain with S2C, A14M, S57C, R62L
modifications: Description of sequence: FKBP13-AcGFP-mCherry Fusion; Construct Name: FKBP-064; FKBP13 DRD in Construct : FKBP13 (mutated to match FKBP12 active site - Q72R Q84E A117H) (DRD - R102L)
[1]
  Fold Change: 21.6

B5: FKBP-056: FKBP13 DRD Q72R, Q84E, A117H, F129K; SEQ ID NO: 12 (protein)
chain: B1 chain with S2C, A14M, S57C, F89K
modifications: Description of sequence: FKBP13-AcGFP-mCherry Fusion; Construct Name: FKBP-056; FKBP13 DRD in Construct : FKBP13 (mutated to match FKBP12 active site - Q72R Q84E A117H) (DRD - F129K)
[1]
  Fold Change: 1.0

B6: FKBP-263: based on FKBP-215 removing the M54A mutation (protein)
chain: B1 chain with S2C, P3R, A14M, E44G, V45R, S57C, H77W, K95Y
modifications: Description of sequence: Construct Name: FKBP-263; Mutation(s): Q72R Q84G A117W V85R DRD P43R K135Y
notes: based on FKBP-215 removing the M54A mutation
FIG. 49, BR1 (Biorep 1)
  Basal: 56
  FC: 49.02
  At 10 uM: 2745
FIG. 49, BR2 (Biorep 2)
  Basal: 63.3
  FC: 45.75
  At 10 uM: 2896
  basal AcGFP expression: retained the low basal AcGFP expression
tacrolimus, FIGS. 31 and 32
  FC: 56
[2]
  Fold Change: 56

B7: FKBP-063: FKBP13 DRD Q72R, Q84E, A117H, M54A, C42S; SEQ ID NO: 19 (protein)
chain: B1 chain with S57C
modifications: Description of sequence: FKBP13-AcGFP-mCherry Fusion; Construct Name: FKBP-063; FKBP13 DRD in Construct : FKBP13 (mutated to match FKBP12 active site - Q72R Q84E A117H) (DRD - M54A C42S )
Tacrolimus dose response
  DRD function after abrogating the disulfide bonds: did not create a significant difference in DRD function
[1]
  Fold Change: 7.3

B8: FKBP-060: FKBP13 DRD Q72R, Q84E, A117H, L104A; SEQ ID NO: 16 (protein)
chain: B1 chain with S2C, A14M, S57C, L64A
modifications: Description of sequence: FKBP13-AcGFP-mCherry Fusion; Construct Name: FKBP-060; FKBP13 DRD in Construct : FKBP13 (mutated to match FKBP12 active site - Q72R Q84E A117H) (DRD - L104A)
[1]
  Fold Change: 2.7

B9: FKBP-055: FKBP13 DRD Q72R, Q84E, A117H, F78V; SEQ ID NO: 11 (protein)
chain: B1 chain with S2C, A14M, F38V, S57C
modifications: Description of sequence: FKBP13-AcGFP-mCherry Fusion; Construct Name: FKBP-055; FKBP13 DRD in Construct : FKBP13 mutated to match FKBP12 active site - (Q72R Q84E A117H) (DRD - F78V)
[1]
  Fold Change: 9.0

B10: FKBP-054: FKBP13 DRD Q72R, Q84E, A117H, D90G, L127K; SEQ ID NO: 10 (protein)
chain: B1 chain with S2C, A14M, D50G, S57C, L87K
modifications: Description of sequence: FKBP13-AcGFP-mCherry Fusion; Construct Name: FKBP-054; FKBP13 DRD in Construct : FKBP13 (mutated to match FKBP12 active site - Q72R Q84E A117H) (DRD - D90G L127K)
[1]
  Fold Change: 0.9

B11: FKBP-272: constructed from FKBP-195 by changing the K135Y mutation to K135L (protein)
chain: B1 chain with S2C, A14M, V45R, S57C, H77W, K95L
modifications: Description of sequence: Construct Name: FKBP-272; Mutation(s): Q72R Q84E A117W V85R DRD K135L
notes: constructed from FKBP-195 by changing the K135Y mutation to K135L
FIG. 39
  Basal: 71.5
  FC: 85
  Peak: 5857
FIG. 50
  Basal: 55.6
  FC: 105.86
  At 10 uM: 5886
  basal AcGFP expression: lower basal AcGFP expression
[2]
  Fold Change: 105.86

B12: FKBP-059: FKBP13 DRD Q72R, Q84E, A117H, L93A; SEQ ID NO: 15 (protein)
chain: B1 chain with S2C, A14M, L53A, S57C
modifications: Description of sequence: FKBP13-AcGFP-mCherry Fusion; Construct Name: FKBP-059; FKBP13 DRD in Construct : FKBP13 (mutated to match FKBP12 active site - Q72R Q84E A117H) (DRD - L93A)
[1]
  Fold Change: 27.3
[3]
  Fold Change: 31.085

B13: FKBP-053: FKBP13 DRD Q72R, Q84E, A117H, D90G, F66H; SEQ ID NO: 9 (protein)
chain: B1 chain with S2C, A14M, F26H, D50G, S57C
modifications: Description of sequence: FKBP13-AcGFP-mCherry Fusion; Construct Name: FKBP-053; FKBP13 DRD in Construct : FKBP13 (mutated to match FKBP12 active site - Q72R Q84E A117H) (DRD - D90G F66H)
[1]
  Fold Change: 1.0

B14: FKBP-058: FKBP13 DRD Q72R, Q84E, A117H, L52A; SEQ ID NO: 14 (protein)
chain: B1 chain with S2C, L12A, A14M, S57C
modifications: Description of sequence: FKBP13-AcGFP-mCherry Fusion; Construct Name: FKBP-058; FKBP13 DRD in Construct : FKBP13 (mutated to match FKBP12 active site - Q72R Q84E A117H) (DRD - L52A)
[1]
  Fold Change: 8.1

B15: FKBP-085: FKBP13 trunc1WT DRD Q72R, Q84E, A117H; SEQ ID NO: 35 (protein)
chain: CPIKSRKGDVLHMHYTGKLEDGTEFDSSLPRNQPFVFSLGTGEVIKGWDQGLLGMCEGEKRKLVIPSELGYGERGHPPKIPGGATLVFEVELLKIER
modifications: truncated (trunc1); Description of sequence: FKBP13-AcGFP-mCherry Fusion; Construct Name: FKBP-085; FKBP13 DRD in Construct : FKBP13 trunc1WT (mutated to match FKBP12 active site Q72R Q84E A117H) (DRD - WT)
[3]
  Fold Change: 16.09
